Test results reported in the supplement of paper PMC7125110.
± gives the standard error. Fewer inactive variants are shown than the library holds.

B1: glmS ribozyme (parent)
chain: AUAAAAGCGCCAGAACUACAGAAAUGUAGUUGACGAGGAGGAGGUUUAUCGAAUUUUCGGCGGAUGCCUCCAAA

How the values were obtained:
Settings in all cases: with glucosamine-6-phosphate
[1] = variants of: B1; test: self-cleavage kobs at 40 uM GlcN6P; higher = faster cleavage; RNA array
In short: (§1)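 Ribozyme variants carrying barcodes were transcribed in situ on sequenced MiSeq chips by E. coli RNA polymerase and tracked at 37 °C with a hybridised Cy3 probe. They were exposed to 40 μM to 10 mM glucosamine-6-phosphate in HEPES/KCl/Mg(OAc)2 buffer. kobs came from exponential decay fits of normalised per-tile medians, and kcat and KM from weighted Michaelis–Menten fits.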

[2] = variants of: B1; test: self-cleavage kobs at 2500 uM GlcN6P; higher = faster cleavage; RNA array
In short: as §1

[3] = variants of: B1; test: self-cleavage kobs at 10000 uM GlcN6P; higher = faster cleavage; RNA array
In short: as §1

[4] = variants of: B1; test: self-cleavage kobs at 160 uM GlcN6P; higher = faster cleavage; RNA array
In short: as §1

[5] = variants of: B1; test: self-cleavage kobs at 640 uM GlcN6P; higher = faster cleavage; RNA array
In short: as §1

| Variant | self-cleavage kobs at 40 uM GlcN6P [1] | self-cleavage kobs at 2500 uM GlcN6P [2] | self-cleavage kobs at 10000 uM GlcN6P [3] | self-cleavage kobs at 160 uM GlcN6P [4] | self-cleavage kobs at 640 uM GlcN6P [5] |
| --- | --- | --- | --- | --- | --- |
| A14G G62U | < 1e-05 s⁻¹ | < 1e-05 s⁻¹ | < 1e-05 s⁻¹ | – | – |
| U46G C61G | < 1e-05 s⁻¹ | – | < 1e-05 s⁻¹ | < 1e-05 s⁻¹ | < 1e-05 s⁻¹ |
| C8A C11G A12G C68U | < 1e-05 s⁻¹ | – | – | – | – |
| G41C G44U G66U | < 1e-05 s⁻¹ | < 1e-05 s⁻¹ | < 1e-05 s⁻¹ | – | – |
| A6U G40C | < 1e-05 s⁻¹ | – | – | – | – |
| A12C U31A G32C C34A U47A C71U | < 1e-05 s⁻¹ | – | < 1e-05 s⁻¹ | – | – |
| G66A C70G | 8.19e-05 ± 1.3e-05 s⁻¹ | 0.000267 ± 7.7e-05 s⁻¹ | 0.00273 ± 0.00055 s⁻¹ | 7.92e-05 ± 2.2e-05 s⁻¹ | 0.000305 ± 7.2e-05 s⁻¹ |
| C10G G62A | < 1e-05 s⁻¹ | – | < 1e-05 s⁻¹ | < 1e-05 s⁻¹ | < 1e-05 s⁻¹ |
| A12U G13U G43A | < 1e-05 s⁻¹ | – | < 1e-05 s⁻¹ | – | – |
| A15U U55G C61U | < 1e-05 s⁻¹ | – | < 1e-05 s⁻¹ | – | – |
| G38U G51C | < 1e-05 s⁻¹ | < 1e-05 s⁻¹ | – | – | < 1e-05 s⁻¹ |
| A14G C70G | 9.61e-05 ± 1.2e-05 s⁻¹ | 0.0009 ± 0.00022 s⁻¹ | – | 0.000203 ± 1.9e-05 s⁻¹ | 0.000614 ± 0.00013 s⁻¹ |
| G38U C61A C67U | 8.86e-05 ± 3e-05 s⁻¹ | – | 8.02e-05 ± 2.6e-05 s⁻¹ | – | – |
| G41U U46G G59C | < 1e-05 s⁻¹ | < 1e-05 s⁻¹ | < 1e-05 s⁻¹ | – | < 1e-05 s⁻¹ |
| A15G U30G | 0.000265 ± 4.2e-05 s⁻¹ | – | 0.00934 ± 0.002 s⁻¹ | 0.000476 ± 0.00016 s⁻¹ | 0.00124 ± 0.00035 s⁻¹ |
| C16U U54A | 0.000888 ± 0.00012 s⁻¹ | 0.00607 ± 0.0014 s⁻¹ | 0.0405 ± 0.0081 s⁻¹ | 0.00185 ± 0.0004 s⁻¹ | 0.00323 ± 0.00079 s⁻¹ |
| G40C U47A C61U | < 1e-05 s⁻¹ | – | – | – | – |
| C10A G40U | < 1e-05 s⁻¹ | – | < 1e-05 s⁻¹ | < 1e-05 s⁻¹ | < 1e-05 s⁻¹ |
| G44U A52U G62C | < 1e-05 s⁻¹ | < 1e-05 s⁻¹ | – | < 1e-05 s⁻¹ | – |
| C8A U49A G51A | < 1e-05 s⁻¹ | – | < 1e-05 s⁻¹ | – | – |
| A6C C8U A14G | < 1e-05 s⁻¹ | – | < 1e-05 s⁻¹ | – | – |
| U47A A53C | 0.000173 ± 2.9e-05 s⁻¹ | 0.00465 ± 0.001 s⁻¹ | 0.00663 ± 0.0016 s⁻¹ | 0.000506 ± 7.8e-05 s⁻¹ | 0.00103 ± 0.00018 s⁻¹ |
| G35U G62A | < 1e-05 s⁻¹ | < 1e-05 s⁻¹ | < 1e-05 s⁻¹ | < 1e-05 s⁻¹ | < 1e-05 s⁻¹ |
| G9C A14U G51A C70G | < 1e-05 s⁻¹ | – | – | – | – |

| Variant | self-cleavage kobs at 40 uM GlcN6P [1] | self-cleavage kobs at 2500 uM GlcN6P [2] | self-cleavage kobs at 10000 uM GlcN6P [3] | self-cleavage kobs at 160 uM GlcN6P [4] | self-cleavage kobs at 640 uM GlcN6P [5] |
| --- | --- | --- | --- | --- | --- |
| C8G A64C | < 1e-05 s⁻¹ | < 1e-05 s⁻¹ | < 1e-05 s⁻¹ | < 1e-05 s⁻¹ | – |
| G51A G62C | < 1e-05 s⁻¹ | < 1e-05 s⁻¹ | < 1e-05 s⁻¹ | < 1e-05 s⁻¹ | < 1e-05 s⁻¹ |
| A39C U49A | < 1e-05 s⁻¹ | – | < 1e-05 s⁻¹ | < 1e-05 s⁻¹ | – |
| G43U C70G | < 1e-05 s⁻¹ | < 1e-05 s⁻¹ | < 1e-05 s⁻¹ | < 1e-05 s⁻¹ | < 1e-05 s⁻¹ |
| U56C G62C | < 1e-05 s⁻¹ | – | < 1e-05 s⁻¹ | – | < 1e-05 s⁻¹ |
| G37C A48U | < 1e-05 s⁻¹ | – | < 1e-05 s⁻¹ | – | – |
| A6C G37U G44U | < 1e-05 s⁻¹ | – | – | – | – |
| A14C C68G U69A | < 1e-05 s⁻¹ | – | – | – | – |
| A6G G38A C50G C71A | 9.73e-05 ± 2.8e-05 s⁻¹ | – | – | – | – |
| A48G G51U | < 1e-05 s⁻¹ | – | – | < 1e-05 s⁻¹ | – |
| C10G A14C A36G U55A C71U | < 1e-05 s⁻¹ | – | – | – | – |
| U30G A36U G51A | < 1e-05 s⁻¹ | – | – | – | – |
| G62A C67U | < 1e-05 s⁻¹ | < 1e-05 s⁻¹ | < 1e-05 s⁻¹ | – | – |
| C11G U31G A53C | < 1e-05 s⁻¹ | – | – | – | – |
| C8A C11G U46G | < 1e-05 s⁻¹ | – | < 1e-05 s⁻¹ | – | – |
| A14U G35U U69G | 0.000295 ± 0.00012 s⁻¹ | – | 6.56e-05 ± 1.9e-05 s⁻¹ | – | – |
| C11U G32C | < 1e-05 s⁻¹ | – | < 1e-05 s⁻¹ | < 1e-05 s⁻¹ | < 1e-05 s⁻¹ |
| U31G C61A | < 1e-05 s⁻¹ | < 1e-05 s⁻¹ | < 1e-05 s⁻¹ | < 1e-05 s⁻¹ | – |
| U31C G38C A39C | < 1e-05 s⁻¹ | < 1e-05 s⁻¹ | – | – | – |
| A48U C50G C67U | 0.000126 ± 4.4e-05 s⁻¹ | – | – | – | – |
| C16A G38A | < 1e-05 s⁻¹ | – | – | – | – |
| C8U A39U | < 1e-05 s⁻¹ | < 1e-05 s⁻¹ | – | < 1e-05 s⁻¹ | – |
| G41C C58A | < 1e-05 s⁻¹ | – | < 1e-05 s⁻¹ | < 1e-05 s⁻¹ | – |
| A6G U30C | < 1e-05 s⁻¹ | – | – | < 1e-05 s⁻¹ | – |
